As a reminder, the IC90 is the concentration at which the effect reaches the 90% level.

The subject of one experiment is R5 HIV-1 BaL virus. As to the kind of experiment: GHOST cells expressing CD4 and CCR5 infected with R5 HIV-1 BaL virus. The experiment is classed as cell-based. On the procedure: (§1) In order to determine the specificity of CXCR4 515H7 Mab, we evaluated the anti-HIV-1 activity of this Mab using GHOST cells expressing CD4 and CXCR4 or CCR5.
(§2) This assay is performed in 48 h using either the X4 HIV-1 LAI virus (with Ghost cells expressing CXCR4) or the R5 HIV-1 BaL virus (with Ghost cells expressing CCR5). 500 μl of Ghost cells were plated (2.5 10^5 cells/ml) for 24 h in Dulbecco culture medium supplemented with 10% FCS. Various dilutions of Mab 515H7 were incubated for 1 h at 37° C. and then diluted HIV-1 LAI virus ( 1/10) and HIV-1 BaL virus ( 1/7) were added to the cells for 48h. Cells were submitted to trypsin and washed with PBS 1×. 300 μL of 1.5% paraformaldehyde were added to the cell pellets for 2 h at +4° C. in the dark, in order to fix the cells and to inactivate viruses. GFP-positive cells were analyzed by flow cytometry and inhibition of HIV-1 infection was calculated.
(§3) The percent of inhibition of infected cells was defined as […] with control infected wells with no Mab.

For another experiment, the system named is X4 HIV-1 LAI virus. As to the kind of experiment: GHOST cells expressing CD4 and CXCR4 infected with X4 HIV-1 LAI virus. The format is cell-based. On the procedure:
as §1, §2, §3

The target in experiment [1] is T1, native form of CXCR4 expressed at the cell surface of monocytes and T lymphocytes (Homo sapiens, UniProt P61073).
T1 construct: the native form of CXCR4 expressed at the cell surface of monocytes and T lymphocytes; endogenous in cells; host or cells: whole blood (buffy coat) of a healthy donor; CD14+ monocytes and CD3+ T cells
As to the kind of experiment: FACS binding to peripheral blood mononuclear cells (whole blood). To be noted: CD3 positive and CD14 positive cells, whole blood of healthy donor. The procedure: Blood was collected as buffy coat from healthy donor. 100 μl of whole blood was incubated with anti-human CXCR4 antibodies (clones 515H7 and 301aE5) at the indicated concentration for 20 minutes at 4° C. Blood was washed three times in PBS-BSA 1%-NaN3 0.01% and incubated with goat anti-human Alexa 488 IgG diluted 1:500 (Invitrogen) for 20 minutes at 4° C. Cells were then washed and incubated with CD14-PE (Caltag) or CD3-PE (Caltag) for 10 minutes at 4° C. and washed three times. Red blood cells were lysed with High-Yield lyse solution (Caltag) for 10 minutes at room temperature. Cells were analyzed immediately using Facscalibur (Becton-Dickinson). CXCR4 expression on monocytes was done on CD14 positive cells and CXCR4 expression on T cell was done on CD3 positives cells (FIG. 1). Results are expressed in Antigen Binding Capacity (ABC).

The subject of experiment [2] is HIV-1 primary isolate UG93067 (dual X4/R5 virus). As to the kind of experiment: Neutralization assay, multiple rounds of replication on primary PBMC, isolate UG93067. The format is cell-based. The procedure: This assay that combines serial dilutions of c515H7 Mab or Maraviroc or combination of both with serial dilutions of virus, analyzes multiple rounds of infection on PBMC (peripheral blood mononuclear cells). Briefly, quadruplicate 25-μl aliquots of serial dilutions (twofold) of c515H7 Mabs or Maraviroc or combination of both were each incubated with 25 μl of serial dilutions of virus in prehydrated 96-well filter plates (1.25-μm pore size, Durapor Dv; Millipore, Molsheim, France). […] On day 7, the presence of p24 in the culture supernatants was measured by ELISA and compared to that of the negative controls (cultures infected with dilutions of virus and maintained in the presence of 10^−6 M zidovudine [AZT]) to determine positive wells. […]
(§4) This assay that combines serial dilutions of hz515H7 Mab or Maraviroc or combination of both with serial dilutions of virus, analyzes multiple rounds of infection on PBMC (peripheral blood mononuclear cells). […] On day 7, the presence of p24 in the culture supernatants was measured by ELISA and compared to that of the negative controls (cultures infected with dilutions of virus and maintained in the presence of 10^−6 M zidovudine [AZT]) to determine positive wells. […]

Experiment [3] relates to HIV-1 primary isolate 89.6 (dual X4/R5 virus). As to the kind of experiment: Neutralization assay, multiple rounds of replication on primary PBMC, isolate 89.6. The experiment is classed as cell-based. To be noted: 90% decrease of viral titer. On the procedure: This assay that combines serial dilutions of c515H7 Mab or Maraviroc or combination of both with serial dilutions of virus, analyzes multiple rounds of infection on PBMC (peripheral blood mononuclear cells). Briefly, quadruplicate 25-μl aliquots of serial dilutions (twofold) of c515H7 Mabs or Maraviroc or combination of both were each incubated with 25 μl of serial dilutions of virus in prehydrated 96-well filter plates (1.25-μm pore size, Durapor Dv; Millipore, Molsheim, France). A control titration of the virus (25 μl of RPMI replacing the diluted c515H7 Mabs or Maraviroc) was performed on the same plate as the titrations in the presence of dilutions of the c515H7 Mabs or Maraviroc or combination of both. After 1 h at 37° C., 25 μl of PHA-stimulated PBMC at a concentration of 4×10^6 cells/ml (pool of PHA activated PBMC from five healthy donors) was added to achieve a 75-μl final culture volume of RPMI, 10% fetal calf serum (FCS), and 20 IU of interleukin-2 (IL-2) per ml (R&D System). After 24 h at 37° C., 100 μl of the same culture medium was added. Two washings (200 μl of RPMI each) were performed by filtration on day 4 to remove the c515H7 Mabs and Maraviroc, and 200 μl of fresh culture medium was added. On day 7, the presence of p24 in the culture supernatants was measured by ELISA and compared to that of the negative controls (cultures infected with dilutions of virus and maintained in the presence of 10^−6 M zidovudine [AZT]) to determine positive wells. […]
as §4

T1 sequence (P61073 whole entry): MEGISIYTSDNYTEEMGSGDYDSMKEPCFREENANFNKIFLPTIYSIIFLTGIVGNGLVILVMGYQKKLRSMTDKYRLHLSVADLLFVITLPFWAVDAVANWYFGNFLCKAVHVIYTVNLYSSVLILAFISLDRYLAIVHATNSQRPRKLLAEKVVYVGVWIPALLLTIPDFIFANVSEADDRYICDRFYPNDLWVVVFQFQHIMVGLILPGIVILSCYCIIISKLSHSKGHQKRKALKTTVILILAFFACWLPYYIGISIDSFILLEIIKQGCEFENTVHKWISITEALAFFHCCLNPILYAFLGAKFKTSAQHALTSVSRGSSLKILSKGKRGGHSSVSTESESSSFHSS

B1: 515H7: murine anti-CXCR4 monoclonal antibody; light chain variable domain SEQ ID No. 7, heavy chain variable domain SEQ ID No. 8 (antibody, listed as Mus musculus, V domains shown)
VH: EVNLVESGGGLVQPGGSLRLSCATSGFTFTDNYMSWVRQPPGKALEWLGFIRNKANGYTTDYSASVRGRFTISRDNSQSILYLQMNALRAEDSATYYCARDVGSNYFDYWGQGTTLTVSS
VL: DIVMSQSPSSLAVSAGEKVTMSCKSSQSLFNSRTRKNYLAWYQQKPGQSPKLLIYWASARDSGVPARFTGSGSETYFTLTISRVQAEDLAVYYCMQSFNLRTFGGGTKLEIK
Regarding B1, the “inhibition of HIV-1 R5 BaL virus infection in CCR5 expressing Ghost cells (in words)” value in the experiment on R5 HIV-1 BaL virus was “totally inactive”. Besides, the “inhibition of HIV-1 X4 Lai virus infection in CXCR4 expressing Ghost cells (in words)” value with X4 HIV-1 LAI virus was “able to inhibit”. In addition, the “GHOST CXCR4/LAI virus % inhibition of infected cells 80” value in the experiment on X4 HIV-1 LAI virus (IC for 80% inhibition) worked out at 0.1 µg/mL. In addition, the “staining of T lymphocytes and monocytes” value in experiment [1] is “stained both T lymphocytes (FIG. 2A) and monocytes (FIG. 2B)”.

B2: c515H7: chimeric antibody 515H7: murine variable domains fused to human Ckappa and IgG1/IgG2/IgG4 constant domains; isotype tested not stated (antibody, V domains shown)
VH: EVNLVESGGGLVQPGGSLRLSCATSGFTFTDNYMSWVRQPPGKALEWLGFIRNKANGYTTDYSASVRGRFTISRDNSQSILYLQMNALRAEDSATYYCARDVGSNYFDYWGQGTTLTVSS
VL: DIVMSQSPSSLAVSAGEKVTMSCKSSQSLFNSRTRKNYLAWYQQKPGQSPKLLIYWASARDSGVPARFTGSGSETYFTLTISRVQAEDLAVYYCMQSFNLRTFGGGTKLEIK
For the molecule B2, the “reduction of virus titer by combination of c515H7 and Maraviroc” value in experiment [2] (10 μg/ml of each, only the combination reached it) is listed as 90%. Also, the “inhibitory activity of the Mab compared with Maraviroc” value in experiment [2] (virus UG93067, PBMC) is listed as “similar”. In addition, the “IC90 of c515H7 with addition of Maraviroc” value in experiment [3] (Maraviroc at 2 μg/ml added) stood at 0.2 µg/mL. Further, in experiment [3] (single agent, multiple rounds, day 7 p24 ELISA), the concentration for an effect of 90% (IC90) came out at 2 µg/mL.

B3: 301aE5: murine anti-CXCR4 monoclonal antibody; light chain variable domain SEQ ID No. 34, heavy chain variable domain SEQ ID No. 35 (antibody, listed as Mus musculus, V domains shown)
VH: QVQLKESGPGLVAPSQSLSITCTVSGFSLTDYGVYWVRQPPGKGLEWLGMIWGDGTTDYNSALKSRLSISKDNSKSQVFLKMNTLQTDDTARYYCARGRQFGFDYWGQGTTLTVSS
VL: DIVMSQSPSSLAVSAGEKVTMRCKSSQSLFNSRTRKNYLAWYQQKPGQSPKLLIFWASIRESGVPDRFTGSGSGTDFTLTISSVQAEDLAVYYCKQSYNLRTFGGGTKLEIK
With B3, in experiment [1], the “staining of T lymphocytes and monocytes” value was “stained both T lymphocytes (FIG. 2A) and monocytes (FIG. 2B)”.

The values above are taken from patent publication US9090686B2, “Antibodies for the treatment of HIV” (Pierre Fabre Medicament, priority 2009, dated 2015).
